Series [1] deals with the molecule itself. Nature of the series: SEC-MALS; 24-ml S-200 column, 20 mM Tris-HCl pH 8, 150 mM NaCl, 5% glycerol, 0.5 ml/min; separately concentrated SEC peaks reinjected. On the technique in general: SEC sorts molecules by how far they enter the pores of the column.
Series [2] concerns the target T1, Bovine lipoprotein lipase (bovine, UniProt P11151 29-478).
T1 sequence (looked up): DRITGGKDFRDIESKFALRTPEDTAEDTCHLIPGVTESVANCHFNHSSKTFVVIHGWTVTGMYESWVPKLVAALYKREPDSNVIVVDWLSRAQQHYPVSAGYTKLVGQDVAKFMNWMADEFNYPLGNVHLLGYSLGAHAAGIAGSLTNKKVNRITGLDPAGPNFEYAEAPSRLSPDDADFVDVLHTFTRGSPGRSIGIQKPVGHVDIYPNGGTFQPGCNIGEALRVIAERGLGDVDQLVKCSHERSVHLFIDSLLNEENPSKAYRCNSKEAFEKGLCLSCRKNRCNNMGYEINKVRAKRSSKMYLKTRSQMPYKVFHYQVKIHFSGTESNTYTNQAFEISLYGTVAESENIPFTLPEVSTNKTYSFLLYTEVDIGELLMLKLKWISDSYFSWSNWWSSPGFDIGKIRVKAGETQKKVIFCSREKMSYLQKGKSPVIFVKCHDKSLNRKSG
Put plainly: cell-based or functional assay.

Series [3] addresses T1, Bovine lipoprotein lipase. Put plainly: enzyme inhibition kinetics (global noncompetitive fit of Michaelis-Menten curves); 10 nM bovine LPL pre-incubated with ANGPTL for 10 min at 22 °C, human VLDL varied, NEFA enzyme-coupled Amplex UltraRed read-out at 37 °C, initial rates; three biological replicates. The settings on record: both partners purified.
Series [4] concerns the molecule itself. Put plainly: SEC; HEK-293-produced N-terminal ANGPTL3; elution compared with E. coli-produced ANGPTL3.

As usually defined, the stoichiometry N is a count of units in the complex or per binding partner. By Ki is commonly meant the equilibrium dissociation constant of an inhibitor or competing ligand from its target.

B1: N-terminal domain of human ANGPTL3 (S17-R224), hexamer (domain or fragment, UniProt Q9Y5C1 17-224, looked up)
chain: SRIDQDNSSFDSLSPEPKSRFAMLDDVKILANGLLQLGHGLKDFVHKTKGQINDIFQKLNIFDQSFYDLSLQTSEIKEEEKELRRTTYKLQVKNEEVKNMSLELNSKLESLLEEKILLQQKVKYLEEQLTNLIQNQPETPEHPEVTSLKTFVEKQDNSIKDLLQTVEDQYKQLNQQHSQIKEIENQLRRTSIQEPTEISLSSKPRAPR
notes: N-terminal (coiled-coil) domain of human ANGPTL3, residues S17 to R224; purified protein with tag 26.8 kDa; No TEV cleavage step is described; Same construct as m2; also called ANGPTL3 peak 1; ANGPTL3 hexamer; source: E. coli Bl21 (DE3) RIPL, purified (Ni-NTA, MonoQ anion exchange, SEC; peak 1 pooled); not shown: His6 with TEV cleavage site, N-terminal, kept
On to B1, for which, in series [1], the “stoichiometry N” value was 6. Moreover, the “IC50 of inhibition of LPL activity (10 nM LPL, 200 μg/ml VLDL triglycerides, NEFA/Amplex UltraRed assay)” value in series [2] was 14.4 nM. For the same molecule, the inhibition constant Ki in series [3] was 13.7 nM.

B2: N-terminal ANGPTL3 (1 to 224) produced in HEK-293 cells (domain or fragment, human, UniProt Q9Y5C1 17-224, looked up)
chain: B1 chain
modifications: N-linked glycans (sites not given)
notes: signal peptide in the construct; human ANGPTL3 residues 1 to 224, collected from the expression medium; also called ANGPTL3 produced in mammalian cells
B2: the “stoichiometry N” value in series [4] worked out at 3.

B3: N-terminal domain of human ANGPTL3 (S17-R224), trimer (domain or fragment, UniProt Q9Y5C1 17-224, looked up)
chain: B1 chain
notes: N-terminal (coiled-coil) domain of human ANGPTL3, residues S17 to R224; purified protein with tag 26.8 kDa; Same construct as m1; also called ANGPTL3 peak 2; ANGPTL3 trimer; source: E. coli Bl21 (DE3) RIPL, purified (Ni-NTA, MonoQ anion exchange, SEC; peak 2 pooled)
Turning to B3, in series [1], the “stoichiometry N” value came out at 3. The “IC50 of inhibition of LPL activity (10 nM LPL, 200 μg/ml VLDL triglycerides, NEFA/Amplex UltraRed assay)” value in series [2] is 5.8 nM. Moreover, in series [3], the inhibition constant Ki amounted to 7.5 nM.

B4: N-terminal domain of human ANGPTL4 (domain or fragment, UniProt Q9BY76 26-163, looked up)
chain: GPVQSKSPRFASWDEMNVLAHGLLQLGQGLREHAERTRSQLSALERRLSACGSACQGTEGSTDLPLAPESRVDPEVLHSLQTQLKAQNSRIQQLFHKVAQQQRHLEKQHLRIQHLQSQFGLLDHKHLDHEVAKPARRK
notes: N-terminal (coiled-coil) domain of human ANGPTL4; monomer 15.4 kDa; also called N-terminal ANGPTL4; ANGPTL4 trimer
As for B4, the “stoichiometry N” value in series [1] turned out to be 3. The “IC50 of inhibition of LPL activity (10 nM LPL, 200 μg/ml VLDL triglycerides, NEFA/Amplex UltraRed assay)” value in series [2] is 4.8 nM. In addition, in series [3], the Ki was 3.6 nM.
